Like-named read-outs stand apart in the source and are kept apart here. No end group written: not given here.
Tests used:
[1] = molecular target: full-length SlyD from Thermus thermophilus (TtSlyDFL) (Thermus thermophilus)
[2] = molecular target: full-length SlyD from Thermus thermophilus (TtSlyDFL) (Thermus thermophilus); remark: listed apart in the source

| Kd [1] | dH [1] | stoichiometry N [1] | Kd [2] | dH [2] | stoichiometry N [2] | Binder |
| --- | --- | --- | --- | --- | --- | --- |
| 158 µM | -14.6 kcal/mol | 1.13 |  |  |  | VGSNSYPHKYNNYEG-NH2 [T1 peptide] |
|  |  |  | 163 µM | -5.1 kcal/mol | 1.29 | WNPKMKP-NH2 [S2-short8 peptide] |
| 133 µM | -0.4 kcal/mol | 1.44 |  |  |  | SGLVPRGS-NH2 [SlpA linker peptide] |

Reference: article PMC5034536, “Molecular insights into substrate recognition and catalytic mechanism of the chaperone and FKBP peptidyl-prolyl isomerase SlyD” (BMC Biology, 2016)
